Reference: the DeepSol protein solubility set

Assay: soluble on expression in E. coli; label from the status in PepcDB or PDB records

Row | Sequence | soluble on expression in E. coli
1 | MGSDKIHHHHHHDMNKLDSDYSVYTDYDNSVHFNEFSTYYLPDSILVPDNSLKANYWKDENAQNIISAVAHEMEQKGYVRTEDKEKANVGIQLSYAQQRIQMTTGGWYGGWWDAGFWGPYWGGGWYYPYPVTYSYDTGTLIMEMVDLRQPADKSNQNKLPVIWHAYASGLLYGNSHFNMQLTLNAVNQAFAQSPYLSNKQ | not soluble
2 | MAHHHHHHMPKIRPGMKRPPPGFEKINDKLDEYDAEMRLALSEDPSQAELPVPSKRKDKQNKVEATKDKHAQSVQRGDGGVAGHSDGELDKPEPPLWRVARINRERTRYVFNACFRERIIAEEVLDYCCEMNFIDAGLVRRWSLAGYERLCCNTCCLPGAASEAARMVNKFANRDKKDRRTNGNDDTGGTCICRVPDEKRLAKAFTRCMVCGCSGCGSGGKRKHDTEEKDSVSDMKKVRTDDYEVKSGK | not soluble
3 | MGSDKIHHHHHHMTKHIHWDGNLSQEGFEIVKGEGGVIVCPTKVGYIIMTSDKKGLERKFEAKKRNRNKPGVVLCGSMEELRALAQLTPEIDAFYQKHWDEDILLGCILPWKAEAYEKLKAYGDGREELMTDIRGTSCFVIKFGVAGEQIAKEMWEKEGRMVYASSANPSGKGNRGKVEGIGERIESMVDLVIEADDYVASIQPDKTIETRYEQGVMVSMVDKDGKLIPQQGADSRSVEPCPVVIRKGLDIDKIMMHLSDQFNSWNYRQGEYY | not soluble
4 | MQQNIQYTYSSDPRSGGNQNQQLHGISQFQQNSYQPTTYSNSNANNFHSSNSATFIPNSVTQTPQRRMGEEKSLVNMLDAYFIDSTTPSTSTSWNNQQPVQMSSIQQSVGSYNQQIPQLKVGDVDLQVEGMNVKLSSSPDKGEKDRVKKARQAEAARMRYHRLSNEEKRELNLKRTLAQKRKRQREKEMEELESILRETNDIQEDPDITEQLREKRMRAKWAEAARTRYARMTPEERRAHNTRRRMRQMQNAMSAIKACGMATGDPQKDDEAVRLHIKTQNAKKAEAARQRYHRMNDDEKRVYNQRRTEAFRRRRMEEEMLLAMPIGRINGEALDRAQQIVVRNAKRAEAARLRYQRMTPDQRKVAKQEPKEESWPSHEQSDTQIDHDLDLGDSYNQKRYTPKRRRNEMDDMISAGQMAVGSSGTITMGTGTPAKKDDMDALSSLERDVVKRTQHAQQILLRQRANQSSGTPRSVTPPPQAYIISNGQQQHQQLVGNQGNNGIGQHQVLHQGHMQQQQIQVSHQQSSQSIPQNIYTSGMIIQNQGQQQQGQQQQQGQSQQILNNPYRT | not soluble
5 | MAHHHHHHMTIRVAINGYGRIGRNTLRAFYENGKKHDLEIVAINDLGDAKTNAHLTQYDTAHGKFPGEVSVDGDYLVVNGDRIRVLANRNPAELPWGELGVDVVMECTGFFTSKEKASAHLKGGAKKVIISAPGGKDVDATIVYGVNHDVLKAEHTVISNASCTTNCLAPLVKPLNDKIGLETGLMTTIHAYTNDQVLTDVYHEDLRRARSATHSQIPTKTGAAAAVGLVLPELNGKLDGYAIRVPTINVSIVDLSFIAKRDTTAAEVNAIMKEASEGALKGILGYNEAPLVSIDFNHNPASSTFDATLTKVSGRLVKVSSWYDNEWGFSNRMLDTAIALANAK | soluble
6 | MSELRILRAVDYPRMPWKNGAGSTEEIARDGGDGLDGFGWRLSIADVGESGGFSGFAGYQRIISVLEGGGMRLRVDGAESAPLRARQAFAFSGDSEVHCTLLDGAIRDFNLIYAPRRHRARLQWLRVEGELDWHGTASTLLLFAQQDGVAISLQGQPRGQLAAHDCLCAEGLQGLQHWRLTAHEPAWVCAVELDSL | soluble
7 | MSLISVIMPVYNCEKYLEESIESILKQTYRDFEFIIVNDGSNDKSIDIINKYANDDNRIVVVSRDNNMGMVYSLNEGIDRAKGSYVARMDADDIALPERFERQIEYLNKNKDVDILACKVEAFGDVSREQKLEREHWYNVDLNNSESIESLFLENCYIAHPSVMMKMSVLKALGGYNLNYKRTEDYNLWLRAIAKGYKIAMLEEKLMKIRLHNDSKIHRDAEGFSSIRDIIQSRLEYVKEKLKLKDFSYVIWGASNGGKIAYEKIKEVFPNAKLNGYIDKFKTGKFEGVDIFYPEDLSKMKVDYVFIATLPGCKEAKGILTKNNFVPIKDFLVLCEGHHHHHH | soluble
8 | GMISPERLRVYRFFASLTDEQLKDIALISEEKSFPTGSVIFKENSKADNLMLLLEGGVELFYSNGGAGSAANSTVCSVVPGAIFGVSSLIKPYHYTSSARATKPVRVVDINGARLREMSENNQALGQVLMNNVAAAVLARLH | soluble
9 | MLMSLAQCPGFLFAHREECTVEIKKIINPRYTESGAVDCDVFFDDRDQAVPYTATADDVAPTGQQIWQELQSGKWGEIAPFTVTPEMLEAAREARRQEIEAWRTEQEAKPFTFEWNGRTWNADASSVARLSPVVMLAKSVAAQTHMVWSDADNQQVKLSMPELEELAAAMVQAQVDRNDEIYRRQREMKEELSSLDDLASIRAFDVK | not soluble
10 | MSLSRQIRYYGTGTEKVEEELQDLLPDANIIRMDNDTTRKKGAHAKLLAQFGSGEADILIGTQMIAKGLDFPNVTLVGVLNADTALGLPDFRASERTFQLLTQVSGRAGRAEKSGHVYIQTFNPDHYAIRFAQHHDYEGFFKYEMQMRHRGGYPPYYFTVQITASDLDEGVAAKRMYQLLQWLRPRLAPSTILLGPTPKPIARVNRRYYYQIVIKYKQEPNLAQTLTTLLHETQAQQRQGLQIGIDVEPLHFMEGHHHHHH | not soluble
11 | MSVASETNWKKLDEKIAISGQISVDDVAAIAAAGYKSIICNRPDGEGGEHQPGSTELEEAAKAAGLQFAYLPVEIGQVSDEKCSAFHQLMATLPGPVLAFCNSGNRARALYSRDVGTTTTPAETISAACDWEHEAAAVTEAESEAAGAAAVSAASSRDEAAGKSIPVTPACNWDNAFDIVVVGGGSAGLGVTASLLRRRSSLRIAIIEPNDKHYYQPAWTLVGGGAYAVDQTVRNTADVIPHGAEWIKAEVSGFSPNDNLVHLADGRTIGYQQLIVCPGIRLAWEKIEGIQETLGKNGVTSNYLFDLAPYTWSLTQQLKGGKALFTQPPMPIKCAGAPQKAMYLSCDYWQRQGVLDKIEVEFDSAGAVLFGVADFVPPLMEYVRKYHANLVFNSNLVKVNGPEKIATFEIKNEAGEVTRVDKPFDMLHVTPPQAAPDFLRDSPLADASGYCEVNPKTLQHTRFANIFSLGDACSSPNTKTAAAVRKQIVIVAENLLAAKDGREFHAVYDGYGACPLTVENGKVVLAEFGFGGKLLPTFPLNPAVARKLYWWFKVKLFPWLYWEGMLKGREWLTRSTETKLEHHHHHH | soluble
12 | MKRIAFVGSVGAGKTTLFNALQGNYTLARKTLAVEFNDKGDIDTPGEYFSHPRWYHALITTLQDVDMLIYVHGANDPESRLPAGLLDIGVSKRQIAVISKTDMPDADVAATRKLLLETGFEEPIFELNSHDPQSVQQLVDYLASLTKQEEAGEKTHHSELEHHHHHH | soluble
13 | TPDIQMTQSPSSLSASVGDRVTITVQASQDIIKHLNWYQQTPGKAPKLLIYEASNLQAGVPSRFSGSGSGTDYTFTISSLQPEDIATYYCQQYQSLPYTFGQGTKLQIT | soluble
14 | YHKLRLAIKEICKTDGIPNIKWGMYIAFGEKLLKSYLKMKAGSASSDMIAEYINNAISAFSSRTGISQETAQKIADFITSNY | soluble
15 | MNSPDRFRLTSCDVTPDRTGMFTAIWTCYGRLAPGWRVVFGIESGTDRLEIEAVADAGVCAPLPDGVADAWLICNGLLIAVLTPELGARLTGGSGYLRFSSSPPHDAVSSTPAHVHRAGIPPRG | not soluble
16 | MANLEKKRVVVTGLGAITPIGNTLQDYWQGLMEGRNGIGPITRFDASDQACRFGGEVKDFDATQFLDRKEAKRMDRFCHFAVCASQQAINDAKLVINELNADEIGVLIGTGIGGLKVLEDQQTILLDKGPSRCSPFMIPMMIANMASGLTAINLGAKGPNNCTVTACAAGSNAIGDAFRLVQNGYAKAMICGGTEAAITPLSYAGFASARALSFRNDDPLHASRPFDKDRDGFVMGEGSGILILEELESALARGAKIYGEMVGYAMTCDAYHITAPVPDGRGATRAIAWALKDSGLKPEMVSYINAHGTSTPANDVTETRAIKQALGNHAYNIAVSSTKSMTGHLLGGSGGIEAVATVMAIAEDKVPPTINLENPDPECDLDYVPGQSRALIVDVALSNSFGFGGHNVTLAFKKYQ | soluble
17 | METKWRNGDIVQPVLNPEPNTVSYSQSSLIHLVGPSDCTLHGFVHGGVTMKLMDEVAGIVAARHCKTNIVTASVDAINFHDKIRKGCVITISGRMTFTSNKSMEIEVLVDADPVVDNSQKRYRAASAFFTYVSLNQEGKPMPVPQLVPETEDEKKRFEEGKGRYLQMKAKRQGHTEPQP | soluble
